Patent US20260022144A1, “ANALGESIC POLYPEPTIDE” (Shanghai Puyou Biomedical Co., Ltd., priority 2022, published 2026)
Numbering of substitutions follows the chain as printed.

B1: SEQ ID NO: 28: polypeptide of SEQ ID NO: 28 for treating or preventing peripheral neuropathic pain (protein)
chain: SEKKQPVDLGLLEEDDEFEEFPAEDWAGLDEDEDAHVWEDNWDDDNVEDDFSNQLRATVLLMILVCETPYGCYVLHQKGRMCSAFLCC
B2: SEQ ID NO: 57: artificial polypeptide of formula (I) X-Y; also listed for peripheral neuropathic pain (protein)
chain: SEKKQPVDLGLLEEDDEFEEFPAEDWAGLDEDEDAHVWEDNWDDDNVTSDFSNQLRATVLLMI
B3: SEQ ID NO: 49: artificial polypeptide of formula (III) X-Y (protein)
chain: STKKQPVDLGLLETDSEFTEFPATSWAGLSESESAHVWTSNWDSSNVTSDFSNQLRATVLLMILVCETPYGCYVLHQKGRMCSAFLCC
B4: SEQ ID NO: 75: artificial polypeptide of formula (I) X-Y (protein)
chain: SEKKQPVDLGLLEEDDEFEEFPAEDWAGLDEDEDAHVWEDNWDDDNVEDDFSNQLRATVLLMILVAETPYGAYV
B5: SEQ ID NO: 93: artificial polypeptide of formula (VI) or (I) X-Y (protein)
chain: B1 chain with D34S, E48T, D49S, C66A, C72A, C82A, C87A, C88A
B6: SEQ ID NO: 90: artificial polypeptide of formula (VI) X-Y (protein)
chain: B3 chain with C66A, C72A, C82A, C87A, C88A

What follows are molecules tested on VZV-induced pain model in rats (assay: VZV-induced pain model in rats, mechanical allodynia (von Frey) test). Details: 10 mg polypeptide/kg i.v., single administration, tested 0.5 h after administration.
Type: in vivo, rat
Method: A summary of the method for inducing pain model in rats by means of subcutaneous VZV inoculation is provided hereinafter. Briefly, male Sprague Dawley (SD) rats were deeply anesthetized by intraperitoneal injection of a Zoletil R: 50 (30 mg/kg)/xylazine (6 mg/kg) anesthetic at an injection volume of 6 mL/kg, and then the virus inoculation was performed by subcutaneous injection at the footpad area. The infection dose was 22800 TCID50 per animal, and the infection volume was 150 μL for all rats.
Administration was performed on alternate days. Briefly, the test articles were administered by subcutaneous injection at the footpad area on Day 1 and Day 3, respectively. As for Group 2, the administration of SEQ ID NO: 29 was initiated from the first concentration. Namely, the first concentration (10 μg/mL) was administered on Day 1, and the second concentration (20 μg/mL) was administered on Day 3. Pain was measured once after each administration.
Mechanical allodynia tests (also called “von Frey tests”) for pain measurements were performed on the rats one hour after administration of the test articles on Day 1 and Day 3, respectively. In the behavioral test for rats, mechanical allodynia is expressed as the 50% paw withdrawal threshold (PWT), which is calculated according to the following formula:
[formula] • wherein • Xf=final test fiber value used in the test • k=tabular value for the pattern of positive/negative responses (Chaplan et al. 1994, page 62) • δ=mean difference.
Briefly, the rats were placed individually in plexiglass boxes with a grid at the bottom to ensure that the rats' feet could be tested. The rats were acclimated to the environment for 15 minutes prior to the test. After the acclimation was completed, pain (mechanical allodynia) was tested on the center of the sole of the left hind foot of the rats using test fibers. The test fibers included 8 test strengths: 3.61 (0.4 g), 3.84 (0.6 g), 4.08 (lg), 4.31 (2 g), 4.56 (4 g), 4.74 (6 g), 4.93 (8 g) and 5.18 (15 g). During the test, the test fibers were pressed vertically against the skin and forces were applied to bend the fibers for 6-8 seconds with a 5-second interval between each test. During the test, a pain response was recorded if the animals quickly withdrew their feet. The pain response was also recorded if the animal withdrew their feet as the test fibers left the animal's skin. The pain response was not recorded if the animal moved or ambulated, and the test should be repeated. The test was started with 4.31 (2 g). If the animal had pain response, the next test should be performed with a test fiber with a lower strength: if the animal has no pain response, the next test should be performed with a test fiber with a higher strength. The maximum strength of the tested fibers was 5.18 (15 g). The test results were recorded in a table, wherein the presence of pain response was recorded as “x”, and the absence of pain response was recorded as “0”.
The rats were randomly divided into 2 groups, with 8 rats in the placebo group (Group 1, administered with vehicle (normal saline)) and 8 rats in the treatment group (Group 2, administered with 30 mg SEQ ID NO: 29/kg). Briefly, the test articles were administered to the rats on a single day by intravenous injection.
Mechanical allodynia tests were performed on the rats 0.5 h after administration of the test articles according to the method as recited in Example 1, respectively.
The rats were randomly divided into 3 groups, with 8 rats in the placebo group (Group 1, administered with vehicle (normal saline)) and 16 rats in the treatment groups (Groups 2 and 3, 8 rats/group, administered with various polypeptides). Briefly, vehicle (normal saline) was administered to the rats from Group 1 and various polypeptides were administered to the rats from Group 2 (SEQ ID: 29, SEQ ID: 57 and SEQ ID: 49; 10 mg polypeptide/kg) and 3 (SEQ ID: 75 and SEQ ID: 28: 10 mg polypeptide/kg) on a single day by intravenous injection.

Row | Molecule | analgetic effect (50% PWT)
1 | B1 | apparent analgetic effect
2 | B2 | apparent analgetic effect
3 | B3 | apparent analgetic effect
4 | B4 | apparent analgetic effect

The molecules below were run on SNL pain model in rats (assay: SNL (spinal nerve ligation) pain model in rats, mechanical allodynia test). Details: SD rats, i.v. single administration (SEQ ID NO: 29 30 and 60 mg/kg; SEQ ID NO: 90 and 93 60 mg/kg), 1 h after administration.
Type: in vivo, rat
Method: A summary of the method for inducing pain model in rats by means of spinal nerve ligation is provided hereinafter. Briefly, male SD rats were anesthetized with Zoletil R 50+xylazine hydrochloride (20 mg/kg+8 mg/kg, intraperitoneal injection). The surgical areas on the waist regions of the animals were shaved, and the skin was disinfected with iodophor and 70% v/v ethanol for three times. The left spinal nerves L5 and L6 of the animals were isolated, tightly ligated with 6-0 silk suture, and the wounds were sutured.
On the 11th day post operation, the animals were acclimated to the experimental environment, 15 minutes/day, for 3 consecutive days.
Briefly, after SNL modeling, 24 animals were randomly divided into 3 groups (Groups 2, 3 and 4, N=8/group). Group 1 (a Sham group, for which the 10 animals received essentially the same operation procedure as other groups but their left spinal nerves L5 and L6 were neither isolated nor ligated) was used as the control group. The test articles were administrated to the animals according to the protocol shown in Table 5, and mechanical allodynia tests were respectively performed 1h after administration according to the method as recited in Example 1.
Briefly, after SNL modeling, 30 animals were randomly divided into 3 groups (Group 1, N=6/group; Groups 2 and 3, N=12/group). Various polypeptides of the present disclosure were administered to the animals from Groups 2 and 3, and the animals were subjected to mechanical allodynia tests 1 h after administration according to the method as recited in Example 1.

Row | Molecule | analgetic effect (50% PWT)
5 | B5 | certain analgetic effect
6 | B6 | certain analgetic effect
